Measured values taken from article PMC3618588.

What follows are substances tested against His6-JAK2 JH1 (836-1132), phosphorylated (JAK2^pY1007/pY1008) (mouse) (UniProt Q62120).
UniProt Q62120, sequence (Q62120 836-1132): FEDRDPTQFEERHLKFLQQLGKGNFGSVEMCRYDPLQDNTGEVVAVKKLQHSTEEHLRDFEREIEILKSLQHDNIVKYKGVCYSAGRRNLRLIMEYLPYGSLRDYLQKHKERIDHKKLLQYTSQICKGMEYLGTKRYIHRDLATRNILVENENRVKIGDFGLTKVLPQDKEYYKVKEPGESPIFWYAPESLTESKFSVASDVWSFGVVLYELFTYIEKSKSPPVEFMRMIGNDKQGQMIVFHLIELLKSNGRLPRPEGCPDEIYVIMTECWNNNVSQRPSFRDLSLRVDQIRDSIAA

| IC50^mutant/IC50^WT, inhibition of JAK2 JH1 kinase activity | Substance |
| --- | --- |
| 2.8 ratio to WT | SOCS3 K28A / elonginBC complex (from UniProt O35718 22-225; Q15370 1-118; Q15369 1-112) |
| 1 ratio to WT | SOCS3^22-225 / elonginBC complex (wild type) (from UniProt O35718;Q15370;Q15369) |
| 1.1 ratio to WT | SOCS3 A50E / elonginBC complex (from UniProt O35718 22-225; Q15370 1-118; Q15369 1-112) |
| 1.2 ratio to WT | SOCS3 L22A / elonginBC complex (from UniProt O35718 22-225; Q15370 1-118; Q15369 1-112) |
| 2 ratio to WT | SOCS3 S29A / elonginBC complex (from UniProt O35718 22-225; Q15370 1-118; Q15369 1-112) |
| 1.4 ratio to WT | SOCS3 R77A / elonginBC complex (from UniProt O35718 22-225; Q15370 1-118; Q15369 1-112) |
| 3.3 ratio to WT | SOCS3 T24A / elonginBC complex (from UniProt O35718 22-225; Q15370 1-118; Q15369 1-112) |
| 1.4 ratio to WT | SOCS3 K23A / elonginBC complex (from UniProt O35718 22-225; Q15370 1-118; Q15369 1-112) |
| 0.1 ratio to WT | SOCS3 L22F / elonginBC complex (from UniProt O35718 22-225; Q15370 1-118; Q15369 1-112) |
| 6 ratio to WT | SOCS3 Y31A / elonginBC complex (from UniProt O35718 22-225; Q15370 1-118; Q15369 1-112) |
| 1 ratio to WT | SOCS3 S26A / elonginBC complex (from UniProt O35718 22-225; Q15370 1-118; Q15369 1-112) |
| 23 ratio to WT | SOCS3 E30A / elonginBC complex (from UniProt O35718 22-225; Q15370 1-118; Q15369 1-112) |
| 10 ratio to WT | SOCS3 T52A / elonginBC complex (from UniProt O35718 22-225; Q15370 1-118; Q15369 1-112) |
| 6 ratio to WT | SOCS3 A50K / elonginBC complex (from UniProt O35718 22-225; Q15370 1-118; Q15369 1-112) |
| 80 ratio to WT | SOCS3 Y47F / elonginBC complex (from UniProt O35718 22-225; Q15370 1-118; Q15369 1-112) |
| 2.5 ratio to WT | SOCS3 S27A / elonginBC complex (from UniProt O35718 22-225; Q15370 1-118; Q15369 1-112) |

Molecular target: His6-JAK2 JH1 (836-1132), phosphorylated (JAK2^pY1007/pY1008) (mouse) (UniProt Q62120)
Remark: another data set of the same source

| IC50 of inhibition of JAK2 kinase activity by the isolated peptide [µM] | Substance |
| --- | --- |
| 100 | isolated KIR peptide from SOCS1 |
